Source: IntAct's records for PubMed 12912994

B1: Mitogen-activated protein kinase kinase kinase 2 (Mus musculus), Q61083 (parent)
chain: MDDQQALNSIMQDLAVLHKASRPALSLQETRKAKPSSPKKQNDVRVKFEHRGEKRILQVTRPVKLEDLRSKSKIAFGQSMDLHYTNNELVIPLTTQDDLDKAVELLDRSIHMKSLKILLVVNGSTQATNLEPSPSPEDLNNTPLGAERKKRLSVVGPPNRDRSSPPPGYIPDILHQIARNGSFTSINSEGEFIPESMDQMLDPLSLSSPENSGSGSCPSLDSPLDGESYPKSRMPRAQSYPDNHQEFTDYDNPIFEKFGKGGTYPRRYHVSYHHQEYNDGRKTFPRARRTQGTSFRSPVSFSPTDHSLSTSSGSSVFTPEYDDSRIRRRGSDIDNPTLTVTDISPPSRSPRAPTNWRLGKLLGQGAFGRVYLCYDVDTGRELAVKQVQFNPESPETSKEVNALECEIQLLKNLLHERIVQYYGCLRDPQEKTLSIFMELSPGGSIKDQLKAYGALTENVTRKYTRQILEGVHYLHSNMIVHRDIKGANILRDSTGNIKLGDFGASKRLQTICLSGTGMKSVTGTPYWMSPEVISGEGYGRKADIWSVACTVVEMLTEKPPWAEFEAMAAIFKIATQPTNPKLPPHVSDYTRDFLKRIFVEAKLRPSAEELLRHMFVHYH
partner: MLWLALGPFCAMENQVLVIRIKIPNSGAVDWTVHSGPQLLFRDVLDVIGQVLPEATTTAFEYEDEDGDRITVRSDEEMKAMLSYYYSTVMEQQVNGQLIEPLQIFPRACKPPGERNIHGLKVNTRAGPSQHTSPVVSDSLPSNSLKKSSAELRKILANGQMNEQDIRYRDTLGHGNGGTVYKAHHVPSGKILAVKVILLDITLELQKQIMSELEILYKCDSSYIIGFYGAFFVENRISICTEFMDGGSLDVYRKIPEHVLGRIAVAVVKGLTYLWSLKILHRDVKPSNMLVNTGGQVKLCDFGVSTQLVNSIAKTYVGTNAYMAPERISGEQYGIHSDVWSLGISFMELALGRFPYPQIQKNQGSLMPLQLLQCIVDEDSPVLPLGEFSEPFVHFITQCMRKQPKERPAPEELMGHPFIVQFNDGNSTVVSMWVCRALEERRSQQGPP

Variants of: B1
Conditions: with mp2k5_mouse Map2k5, Q9WVS7

effect of a mutation on the interaction | Variant
decreasing interaction | K47A
